Patent publication US20160115235A1 (ARES TRADING S A, published 2016)
Numbering of substitutions follows the chain as printed.

B1: mAb 80A10 (antibody, V domains shown)
VH: EVQLLESGGGLVQPGGSLRLSCAASGFTFSMYVMKWVRQAPGKGLEWVSGIRSSGGDTSYADSVKGRFTISRDNSKNTLYLQMNSLRAEDTAVYYCARQSRYCNGGSCYSRAFDIWGQGTMVTVSS
VL: QPPSASGTPGQRVTISCFGSNSNIGSTYAYWYQQVPGTAPKLLIYRNNQRPSGVPDRFSGSKSGTSASLAISGLRSEDEADYYCAAWDVNLSGHWVFGGGTKLTVLG
B2: mAb 12A01 (antibody, V domains shown)
VH: EVQLLESGGGLVQPGGSLRLSCAASGFTFSRYVMVWVRQAPGKGLDWVSGISPSGGVTRYADSVKGRFTISRDNSKNTLYLQMNSLRAEDTAMYYCARIRKEMTTISYFFDYWGQGTLVTVSS
VL: DIQMTQSPDSLSASVGDRVTITCRASQGVDIYVAWYQQKPGKVPKLLMHSASTLASGVPSRFSGRGSGTDFTLTINSLQAEDVATYYCQSHNSAVVTFGQGTRLEIK
B3: mAb 40C01 (antibody, V domains shown)
VH: B2 VH
VL: B2 VL with Q6R, S7A, V43A
notes: also called 40C01 VH-VL; 40C01 parental molecule
B4: mAb 80B09 (antibody, V domains shown)
VH: EVQLLESGGGLVQPGGSLRLSCAASGFTFSKYNMLWVRQAPGKGLEWVSVISPSGGRTSYADSVKGRFTISRDNSKNTLYLQMNSLRAEDTAVYYCARHTSITMFDYWGQGTLVTVSS
VL: QSALTQPASVSGSPGQSITISCTGTSSDIGSYNYVSWYQQHPGRAPKVMIYDVTYRPSGVSNRFSGSKSGNTASLTISGLQAEDEADYYCGSYRKSSLYVFGTGTKVTVL
B5: mAb 80D11 (antibody, V domains shown)
VH: EVQLLESGGGLVQPGGSLRLSCAASGFTFSHYWMQWVRQAPGKGLEWVSSISSSGGKTRYADSVKGRFTISRDNSKNTLYLQMNSLRAEDTAVYYCATAGYSSGWGQGTLVTVSS
VL: QSALTQPASVSGSPGQSITISCTGTSSDVGGYNYLSWYQQHPGKAPKLMIYGVSNRPSGVSTRFSGSKSGNTASLTISGLQAEDEADYYCSSYTSTGTRVFGGGTRLTVL
B6: mAb 80A11 (antibody, V domains shown)
VH: EVQLLESGGGLVQPGGSLRLSCAASGFTFSRYPMGWVRQAPGKGLEWVSSISPSGGMTRYADSVKGRFTISRDNSKNTLYLQMNSLRAEDTAVYYCARLKFTSGRTFDIWGQGTMVTVSS
VL: DIQMTQSPATLSLSPGERATLSCRASQSVSSYLAWYQQKPGQAPRLLIYGASSRVPGVPDRFTGSGSETDFTLTITRLEPEDFAVYYCQLSSSSPSWTFGQGTRLEIK
B7: mAb 42F03 (antibody, human IgG1, V domains shown)
VH: EVQLLESGGGLVQPGGSLRLSCAASGFTFSWYPMTWVRQAPGKGLEWVSYIRSSGGFTKYADSVKGRFTISRDNSKNTLYLQMNSLRAEDTAVYYCARGLYRWGQGTLVTVSS
VL: IQMTQSPGTLSLSPGERATLSCRASQSVSNNYLAWYQQKPGQAPRLLISGASRRATDIADRFSGSGSGTDFTLTISRLEPEDFAVYYCQQYDSFPLTFGGGTKVEIK
B8: anti-CXCR5 40C01-VH1-Vk3-IgG1 (antibody)
heavy: not shown
light: DIQMTQSPSSLSASVGDRVTITCRASQGVDAYVAWYQQKPGKVPKLLIYSTSTLASGVPSRFSGSGSGTDFTLTISSLQPEDVATYYCQSHNAAVVTFGQGTRLEIKRTVAAPSVFIFPPSDEQLKSGTASVVCLLNNFYPREAKVQWKVDNALQSGNSQESVTEQDSKDSTYSLSSTLTLSKADYEKHKVYACEVTHQGLSSPVTKSFNRGEC
B9: anti-CXCR5 40C01-VH1-Vk3 as IgG4 (antibody)
heavy: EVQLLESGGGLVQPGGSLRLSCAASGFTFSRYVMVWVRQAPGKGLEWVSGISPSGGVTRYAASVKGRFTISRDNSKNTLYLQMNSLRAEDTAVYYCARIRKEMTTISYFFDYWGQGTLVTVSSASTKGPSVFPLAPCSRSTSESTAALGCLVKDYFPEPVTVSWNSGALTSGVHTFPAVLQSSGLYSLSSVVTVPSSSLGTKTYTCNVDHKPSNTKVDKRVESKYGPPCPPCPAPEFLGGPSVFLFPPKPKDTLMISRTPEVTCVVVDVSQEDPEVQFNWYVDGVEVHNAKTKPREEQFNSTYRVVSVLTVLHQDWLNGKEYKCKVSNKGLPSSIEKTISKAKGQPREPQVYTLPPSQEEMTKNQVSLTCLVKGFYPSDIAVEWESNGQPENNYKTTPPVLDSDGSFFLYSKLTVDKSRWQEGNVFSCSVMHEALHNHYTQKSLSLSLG
light: B8 light
B10: anti-CXCR5 40C01-VH2-Vk3 as IgG4 (antibody)
heavy: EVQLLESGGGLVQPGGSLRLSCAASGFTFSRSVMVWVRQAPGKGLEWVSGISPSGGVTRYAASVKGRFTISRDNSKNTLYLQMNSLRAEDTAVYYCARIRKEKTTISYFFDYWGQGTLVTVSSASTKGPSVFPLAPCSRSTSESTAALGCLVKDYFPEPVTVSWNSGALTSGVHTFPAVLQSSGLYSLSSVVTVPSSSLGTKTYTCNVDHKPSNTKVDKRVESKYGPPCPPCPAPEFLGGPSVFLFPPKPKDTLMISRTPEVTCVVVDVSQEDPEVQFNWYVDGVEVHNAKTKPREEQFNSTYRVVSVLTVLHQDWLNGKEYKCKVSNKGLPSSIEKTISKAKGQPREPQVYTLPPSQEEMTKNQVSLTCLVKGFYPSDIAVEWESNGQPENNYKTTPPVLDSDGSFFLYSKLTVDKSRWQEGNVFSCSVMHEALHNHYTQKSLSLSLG
light: B8 light
B11: recombinant Fab fragment of 40C01-VH1-Vk3 (Fab, V domains shown)
VH: B2 VH with D46E, D62A, M93V
VL: B2 VL with D9S, I31A, M48I, H49Y, A51T, R65S, N76S, A80P, S93A
B12: recombinant Fab fragment of 40C01-VH2-Vk3 (Fab, V domains shown)
VH: B2 VH with Y32S, D46E, D62A, M93V, M103K
VL: B2 VL with D9S, I31A, M48I, H49Y, A51T, R65S, N76S, A80P, S93A

target: T1, rat CXCR5 (rat, UniProt P34997 1-374); assay: FACS on cells expressing species orthologues
T1 construct: whole, on cells
T1 sequence (looked up): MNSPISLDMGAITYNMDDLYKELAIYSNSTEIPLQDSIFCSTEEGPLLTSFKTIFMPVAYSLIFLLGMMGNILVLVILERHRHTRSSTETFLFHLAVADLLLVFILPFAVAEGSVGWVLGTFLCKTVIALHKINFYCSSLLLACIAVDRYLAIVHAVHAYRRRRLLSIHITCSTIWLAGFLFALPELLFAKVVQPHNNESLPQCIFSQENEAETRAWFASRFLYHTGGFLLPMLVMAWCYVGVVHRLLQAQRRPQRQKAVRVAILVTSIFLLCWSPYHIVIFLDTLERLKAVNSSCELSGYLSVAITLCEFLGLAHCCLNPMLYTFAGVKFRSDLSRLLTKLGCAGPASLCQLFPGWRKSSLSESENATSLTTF
Procedure: (§1) Binding of anti-CXCR5 antibodies to cell lines and primary cells expressing human CXCR5 or species orthologues was assessed by FACS. Briefly, approximately 1×10⁵ CXCR5 expressing cells were suspended in FACS buffer (PBS containing 1% FBS and 0.02% sodium azide) containing increasing concentrations of anti-CXCR5 antibodies ranging from 0-100 μg/ml, and incubated for 20 min at 4° C. Cells were washed and then resuspended in FACS buffer containing PE-labelled goat anti-human IgG (Jackson labs) for 20 min at 4° C. Cells were then washed 3 times and resuspended in 100 μl FACS buffer and analysed on a FACScalibur instrument (BD Sciences). MFI was plotted against antibody concentration and Graph pad prism software was used to calculate EC₅₀ values.

| Binder | binding result |
| --- | --- |
| B1 | no binding |
| B2 | no binding |
| B3 | no binding |
| B4 | no binding |
| B5 | no binding |
| B6 | no binding |
| B7 | no binding |

target: T2, mouse CXCR5 (mouse, UniProt Q04683 1-374); assay: FACS on cells expressing species orthologues
T2 construct: whole, on cells
T2 sequence (looked up): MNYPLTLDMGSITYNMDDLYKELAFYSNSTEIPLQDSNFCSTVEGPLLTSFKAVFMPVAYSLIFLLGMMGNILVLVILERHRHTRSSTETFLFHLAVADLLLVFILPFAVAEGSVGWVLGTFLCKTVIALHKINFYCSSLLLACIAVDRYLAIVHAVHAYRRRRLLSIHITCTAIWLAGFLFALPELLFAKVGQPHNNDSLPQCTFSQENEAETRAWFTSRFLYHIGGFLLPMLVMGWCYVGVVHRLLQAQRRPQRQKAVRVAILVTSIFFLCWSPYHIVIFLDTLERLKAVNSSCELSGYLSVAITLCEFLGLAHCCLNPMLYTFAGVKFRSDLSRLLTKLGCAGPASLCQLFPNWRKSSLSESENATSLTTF
Procedure: as §1

| Binder | binding result |
| --- | --- |
| B1 | no binding |
| B2 | no binding |
| B3 | no binding |
| B4 | no binding |
| B5 | no binding |
| B6 | no binding |
| B7 | no binding |

Target: T3, cynomolgus monkey (Macaca fascicularis) CXCR5 (cynomolgus monkey (Macaca fascicularis), UniProt P32302 1-372 (human entry))
T3 chain: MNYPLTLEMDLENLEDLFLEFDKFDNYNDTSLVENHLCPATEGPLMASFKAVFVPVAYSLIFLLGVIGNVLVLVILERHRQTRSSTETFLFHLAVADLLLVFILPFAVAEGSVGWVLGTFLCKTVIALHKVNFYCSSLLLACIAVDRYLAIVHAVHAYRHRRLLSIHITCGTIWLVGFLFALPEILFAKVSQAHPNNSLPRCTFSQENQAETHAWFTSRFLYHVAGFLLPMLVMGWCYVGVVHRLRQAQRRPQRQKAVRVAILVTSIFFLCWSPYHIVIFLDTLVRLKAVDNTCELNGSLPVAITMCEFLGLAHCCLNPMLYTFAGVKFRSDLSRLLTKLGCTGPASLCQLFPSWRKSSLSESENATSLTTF
Assay: cell-based or functional assay

| Binder | IC50, inhibition of CXCL13-induced L1.2-CXCR5 chemotaxis [nM] |
| --- | --- |
| B8 | 0.19 |

target: T4, human CXCR5 (human, UniProt P32302 1-372); assay: cell-based or functional assay
T4 sequence: T3 chain with L19W, F21L, K23R, F24L, F180L, A193G, P195H, V285A, E295K, K357R

| Binder | IC50, inhibition of CXCL13-induced L1.2-CXCR5 chemotaxis [nM] |
| --- | --- |
| B9 | 2.1 |
| B8 | 1.81 |
| B10 | 0.103 |

target: T4, human CXCR5; assay: cell-based or functional assay; remark: another data set of the same source

| Binder | IC50, inhibition of ERK phosphorylation in whole blood (B cells, CXCL13-stimulated) [nM] |
| --- | --- |
| B8 | 0.17 |

Target: T3, cynomolgus monkey (Macaca fascicularis) …
Assay: cell-based or functional assay
Remark: another data set of the same source

| Binder | efficacy of inhibition of CXCL13-stimulated L1.2-CXCR5 chemotaxis [%] |
| --- | --- |
| B8 | 100 |

target: T4, human CXCR5; assay: cell-based or functional assay; remark: another data set of the same source

| Binder | IC50, inhibition of human CXCR5-L1.2 cell chemotaxis [nM] | efficacy of inhibition of CXCL13-stimulated L1.2-CXCR5 chemotaxis [%] | mean IC50, inhibition of CXCL13-stimulated chemotaxis of primary human B cells in human serum [nM] |
| --- | --- | --- | --- |
| B11 | 288 | – | – |
| B12 | 20.9 | – | – |
| B9 | – | 100 | – |
| B8 | 0.38 | 100 | 1.89 |
| B10 | – | 100 | – |

Target: T3, cynomolgus monkey (Macaca fascicularis) …
Assay: FACS on CXCR5 expressing cells
Procedure: as §1

| Binder | binding result |
| --- | --- |
| B2 | binds |
| B3 | binds |
| B5 | binds |

target: T4, human CXCR5; assay: cell-based or functional assay; remark: another data set of the same source

| Binder | Mean IC50 (nM) on L1.2/human CXCR5 cells (chemotaxis) [nM] |
| --- | --- |
| B1 | 4.7 |
| B2 | 2200 |
| B3 | 5.6 |
| B4 | 251 |
| B5 | 37 |
| B6 | 1.85 |
| B7 | 1.86 |
